The test system of this data set is NspHI restriction endonuclease (NspHIR) (Nostoc sp. (ATCC 29106)). Description: cleavage_in_vitro. Conditions: cell extract dilutions 10^-1 to 10^-5 on lambda DNA.

These results are taken from patent publication US6130078.

As to bacteriophage lambda DNA, the activity (units per g wet cells) is 186000.
